# According to the DeepSol protein solubility set:
# Experiment: soluble on expression in E. coli; label from the status in PepcDB or PDB records
row,Sequence,soluble on expression in E. coli
1,MRIMASHDTPVSPAGILIDLDGTVFRGNELIEGAREAIKTLRRMGKKIVFLSNRGNISRAMCRKKLLGAGIETDVNDIVLSSSVTAAFLKKHYRFSKVWVLGEQGLVDELRLAGVQNASEPKEADWLVISLHETLTYDDLNQAFQAAAGGARIIATNKDRSFPNEDGNAIDVAGMIGAIETSAQAKTELVVGKPSWLMAEAACTAMGLSAHECMIIGDSIESDIAMGKLYGMKSALVLTGSAKQGEQRLYTPDYVLDSIKDVTKLAEEGILILEHHHHHH,not soluble
2,GQDRFVYTCNECKHHVETRWHCTVCEDYDLCINCYNTKSHTHKMVKWGLGLD,soluble
3,MGSDKIHHHHHHDIRPVGSVIPQTAEEYRALLARAYLNVPNDRGLACLRSDEMLVNDNEYDRNSYGDIERWNDVSPFPGTSQFTWSNFYNVLFIANQVIESQKEITEGTPEVVNQLVGEAHLLRAYLHFVLVNLHGQPYTKSGALNSKSIPLKLDTDLEKTLGRNTVEEVYTSILSDIEHARELINKEKWETVFSYRFNVLSVDALQSRVSLYMGAWPKCLESAEAVLAKKSVLVDMNETPLALPNHFESVESITALEQVMGSSVNNAVWVPATFLALYQEGDKRLAAYFAAPDENGNRKSSKGGKREFSCTFRVGELYLNAAEAAANMDKLPHARMRLLELMRKRYTPEAYDKKENAVNVMDKNALISEILNERARELAFEGHRWFDLRRTTRPRMVKVLQGKTYILEQDDPRYTIPIPRDAIAANPGLAN,not soluble
4,MMDGDIIGENEDGIGVDVSDNNEIIHEISIEKGSWEIVYHEQDGYPDKAAKRTPDGNEHVNQARRFARYHVYKERGYETFPWDEHIGYIETVGDAIKSLSTEEFEDYFGEFYETVAGSLSLNSGGDITALFAAIQEKANAYYIDVYLDNDGQVEATSEVRQIIPTDDWQEELESPPEDTDRVPD,not soluble
5,PRTVKELTVSAGDNLIITLPDNEVELKAFVAPAPPVETTYNYEWNLISHPTDYQGEIKQGHKQTLNLSQLSVGLYVFKVTVSSENAFGEGFVNVTVKPAR,soluble
6,MNSVGFYGKLAGRGDFVSRGLPNTFVEPWDAWLASGMRASQDELGAAWLDAYLTSPLWRFAIAPGLLGGEAVTGVVMPSIDRVGRYFPLTVACLLPANADLGGLVGGDDGWFEQVESLLLSTLEPEAEVEAFEQAVAQLPAPPCGPRIEQSLISGNLLRSEAVTPAQRLAALAQHACDGASHWWGRGSARISAGLMRYQGLPPAPAFGRFLTGEGEVIPLFPGIPG,soluble
7,MTEVYDLEITTNATDFPMEKKYPAGMSLNDLKKKLELVVGTTVDSMRIQLFDGDDQLKGELTDGAKSLKDLGVRDGYRIHAVDVTGGNEDFKDESMVEKYEMSDDTYGKRTDSVRAWKKKMQEEQGSAAPMENESDKLNEEAAKNIMVGNRCEVTVGAQMARRGEVAYVGATKFKEGVWVGVKYDEPVGKNDGSVAGVRYFDCDPKYGGFVRPVDVKVGDFPELSIDEI,soluble
8,MGSDKIHHHHHHMLTMKPEFVAQLERVLSSVEMLLPRAVKPVNWSTCYAANWRRHSFSGFLQAVRVTDTTSLHELLGVEKQKEIMISNTRQFLKGLPANNALLWGSRGTGKSSLVKALLNEYACEGLRVIQVEKEDLIYLSDIFSAVEGEPYRFILLCDDLTFEPGELTYKILKSALDGSVYSPPENVLIYVTSNRRHLLPEYESDNIGWKLVNGELQESEATEEKIALSDRFGLWVPFHVFTQDRYLEAVRLCVEREARTREVDIPWSEQLRLDAIQWSHDKKKRCGRTAYQFSKHWVGKYLLARQAA,not soluble
9,MLLRKGTVYVLVIRADLVNAMVAHARRDHPDEACGVLAGPEGSDRPERHIPMTNAERSPTFYRLDSGEQLKVWRAMEDADEVPVVIYHSHTATEAYPSRTDVKLATEPDAHYVLVSTRDPHRHELRSYRIVDGAVTEEPVNVVEQYLEHHHHHH,not soluble
10,MASNEARYVLAEEVDFSSPEEVKNWWNSGTWQAEFGSPDIEWNGEVGNGALQLNVKLPGKSDWEEVRVARKFERLSECEILEYDIYIPNVEGLKGRLRPYAVLNPGWVKIGLDMNNANVESAEIITFGGKEYRRFHVRIEFDRTAGVKELHIGVVGDHLRYDGPIFIDNVRLYKRTGGM,soluble
11,MSLLTVVHDQDSSNEDACGSRSLLDEIVRDGARQMLAAALAAEVAAYIDAHAGEVDENGHRLVVRNGYHREREVLTAAGAVTVIAPRVNDKRIDADTAERRRFSSAILPAWARKSPQMTEVLPLLYLHGLSTSDFGPALEQFLGSGAGLSATTITRLTAQWQDEAKAFGERDLSGTDYVYLWVDGIHLKVRLEQEKLCLLVMIGVRSDGRKELVGLADGYRESTESWADLLRSCRRRGMTAPVLAVGDGALGFWKAMREVFPATREQRCWFHKQANVLSCLPKSAHPGALAAMREIYNAEDIDHAQVAIKAFEVDYGAKYPKAVAKIVDDADVLLEFYRYPAEHWIHLRTTNPIESTFATVRLRTKVTKGPGSRAAGIAMAYKLIDAAQARWRAVNAPHLVALVRAGAVFHKGKLLEREGHHHHHH,not soluble
12,MLNDGEVTPSRHEILSMVKKHSKSLGKTSLDEQDASDVEMDSNFWHGVFDVYFVRCMESRRRQDDDLLFFVRKLSCKSYGLTENEDAPAPYFVRRWAPKLDELLGESLAEVDWRKSFYLNMIAHTSFTVTVAICSNEALKTYQGSKDTKLSPIYKVVKTVYASPSRVNFHLDSKKEVETTPAYPEICFAVDDFDSTFDAVVLTDKDHCYCVLLNSHDGAAFPSATVKDSSDSNTNADPRTVKDPKVTLFSGFVSYQMVREAYEGGRNRFGSLLSLGHITGKADRLYMRGPGGRGEVEVAVSGVVDQSQVVLGPVSPMSSKKSIDLGSIFRKAASVASVAAKHAIAAATASYDEDEMFPLKCCLMSISLPWDTIAHDLLFKATPPVNME,soluble
13,MGSDKIHHHHHHMVYVNANVDTKVDNRKDNCDNTNTYSHTVDRKDNFDNTTTNTKTVNRNDNCNNQEEGDVNMYRRNDNCNNREATNSRSANYSIHNQGMINCYNGIAIDNRAFNSSGANTMAGTEFLRAFLDAPMSVMPGSRKNAIMDRQEGSTQPAIRYNNR,not soluble
14,MAQQAPDREKALELAMAQIDKNFGKGSVMRLGEEVRQPISVIPTGSISLDVALGIGGLPRGRVIEIYGPESSGKTTVALHAVANAQAAGGIAAFIDAEHALDPEYAKKLGVDTDSLLVSQPDTGEQALEIADMLVRSGALDIIVIDSVAALVPRAEIEGEMGDSHVGLQARLMSQALRKMTGALNNSGTTAIFINALREKIGVMFGSPETTTGGKALKFYASVRLDVRRIETLKDGTDAVGNRTRVKVVKNKVSPPFKQAEFDILYGQGISREGSLIDMGVEHGFIRKSGSWFTYEGEQLGQGKENARKFLLENTDVANEIEKKIKEKLGIGAVVTAEADDVLPAPVDF,soluble
15,MIPEQRREQILRQLRKHQVLSVHQLMEMFDCSHMTVRRDIALLEQEGRAHSVTGGVRIASQLHSEPSHQSKAVVELPQKQAMAKLAASLLHADMTVYLDAGTSTLEIVHYIKALSGMTVVTNDFGVAQALMDAPQVTVIHTGGQLDHSNHSCVGGLAVATLRQVVTDVAFISTSSWDLRRGITTPSALKVEVKQVAMQSATQVVLVASSSKYGTFSMYKIAGLEQFDIIISDAALAPAAADGIRKHGVELLLPAQSLEHHHHHH,not soluble
16,MLTTDSLKRLWIFSFDRTLTAAGACYSKARLHRVTRQFLEELAALPGHRVAVLSSRPLDDLVSRVPIEGIYLGGSCGTEWHIPGGESMTLSGKPKDMLMETRDALLPTLREVADLPGVELEDRRWSAALHTQEANTKARQTLFARLAAVLKGWRVALYRNTTMVEIQFLPEITMAFGAQALCRFLGYRGDVVCAGSDENDATALRWALNQGGTALSLGRDPLVPGARPVVDVRSLARHVRDLAGIDEHHRTRMAGRRLCNAALEHHHHHH,not soluble
17,MDATDDIRAGELASDWSGSPDAGVVFIGRIHTPWNRLKECPRHGRADGPVCRIEVFETWLPALAGIDDGTLLEVFYWLHRSRRDLLLQCPRNDGDARGTFSIRSPLRPNPIGTSIARVDRRDGANLFIRGLDCLDGTPLVDLKPDRAEFMPLAPPKPGDFQVGEPRR,soluble
18,MSLKVGFDNQKYLKMQSEHIRERISKFDNKLYLEFGGKLFDDYHASRVLPGFEPDSKLKMLLELKDQAEIVIVISAIDIEKSKVRGDLGITYDSDVLRLIDAFQSKGLYVGSVTITQYSGQSSADLFKSKLEALGVKVYLHYIIPGYPNNISLILSEDGYGKNEFIQTTRPLVVITAPGPGSGKMATCLSQLYHEHKRGVRAGYAKFETFPIWNLSLKHPVNVAYEAATADLNDVNMIDPCHLEAYGVTAVNYNRDVEIFPVLKAIFLRIDEHCPYKSPTDMGVNMVGNCIIDDQACRDASKQEILRRYYQTLCNVINGTSDGDEVYKLELLLNQVSVSAEDRPVIKAANDLADLNKSPAVAMQLADESIITGKTSELLGASAAVLLNALKALAGIPHETHVISPLAIGPIQQLKTQYLGSSNPRLHTDEVLIALSISAKEDENARKAMEQLPHLKGCEVHTSVILSEVDRKVFHKLGVHLTSEPTYENKKLFHEGHHHHHH,soluble
19,MSDKLFSIVTISFNQAQFLREAVESVLAQKGGDIEYIVVDPGSTDGSREILAEYRSAIDHLILEADHGPGDGLNKGFARANGRYGYFLNSDDFLLPGAIDIMRTLWQRHKNTDVLLCGAWMVDENRRPQRELRPSPVTLEKLLDGEAKIVQQGMSFRMDLFRKVGGFNVGNRTCWDYELLCDFLAAGAAVTQSEARLAAFRIHSASISGGIGGELATKRYLADLDSVYERLTGQKKKPEQRRRAVRLSKRLGSPSHVLLRMRELLAPWTLELRWQADHERKSRRLEHHHHHH,not soluble
20,GMDIINNRRSIRNYKGKKVEKEKIEKLLRAAMQAPSAGNQQPWEFIVLEDRENIDKLSNFSKYANSLKTAPLAIVLLADEEKMKISEMWEQDMAAAAENILLEAAYLDLGAVWLGAQPIEERVKNLKEMFNLKSNIKPFCVISVGYPENSENKFIDRFDAKRIHIEKY,soluble
21,MAAEDELQLPRLPELFETGRQLLDEVEVATEPAGSRIVQEKVFKGLDLLEKAAEMLSQLDLFSRNEDLEEIASTDLKYLLVPAFQGALTMKQVNPSKRLDHLQRAREHFINYLTQCHCYHVAEFELPKTMNNSAENHTANSSMAYPSLVAMASQRQAKIQRYKQKKELEHRLSAMKSAVESGQADDERVREYYLLHLQRWIDISLEEIESIDQEIKILRERDSSREASTSNSSRQERPPVKPFILTRNMAQAKVFGAGYPSLPTMTVSDWYEQHRKYGALPDQGIAKAAPEEFRKAAQQQEEQEEKEEEDDEQTLHRAREWDDWKDTHPRGYGNRQNMGLEHHHHHH,soluble
22,MSLQTQDIIRRSGTNSLTPPPQVRDHQEPVAKLIDVTTCIGCKACQVACSEWNDIRDEVGHNVGVYDNPADLTAKSWTVMRFSEVEDEESGKLEWLIRKDGCMHCADPGCLKACPSEGAIIQYANGIVDFQSEHCIGCGYCIAGCPFDVPRMNKDDNRVYKCTLCVDRVGVGQEPACVKTCPTGAIHFGTKESMKEVAAGRVAELKTRGFDNAGLYDPAGVGGTHVMYVLHHADKPQLYHGLPENPTISPTVTFWKGIWKPLAAVGFAATFAASIFHYVGVGPNRVEEEEEDDETTDPTPSETVAKAPEQTTSERSDEGETRK,not soluble
